Read-outs that look alike come from different tables or passages of the source. Positions of bridges follow the written chain, without caps; N, C: chain ends. Non-standard residues stand in square brackets, D forms with d. No end group written: not given here. Aib = CC(C)(N)C(=O)O
What was measured:
[1] = cited from earlier work
[2] = target: human glucagon receptor (human, UniProt P47871 26-477); experiment: cell-based or functional assay
Chain of human glucagon receptor (P47871 26-477): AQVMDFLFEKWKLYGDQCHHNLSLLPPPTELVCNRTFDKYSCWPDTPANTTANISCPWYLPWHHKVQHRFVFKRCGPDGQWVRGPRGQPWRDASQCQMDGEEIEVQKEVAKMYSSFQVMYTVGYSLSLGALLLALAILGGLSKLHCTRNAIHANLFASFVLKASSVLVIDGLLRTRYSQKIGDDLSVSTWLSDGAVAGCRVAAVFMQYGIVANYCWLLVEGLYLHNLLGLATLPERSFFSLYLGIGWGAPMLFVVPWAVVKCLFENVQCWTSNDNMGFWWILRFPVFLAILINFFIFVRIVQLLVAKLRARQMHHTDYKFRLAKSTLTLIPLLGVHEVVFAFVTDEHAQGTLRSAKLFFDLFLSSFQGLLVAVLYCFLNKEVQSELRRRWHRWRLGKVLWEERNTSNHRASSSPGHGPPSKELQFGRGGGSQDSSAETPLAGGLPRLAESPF

Molecule | in vitro activity (%, relative to SEQ ID NO: 1); cAMP assay, from EC50 [2] [%] | further results
Contrave | – | side-effects ([1]; in vivo): cardiovascular side-effects
CC(C)CC(N(C)C)C1(c2ccc(Cl)cc2)CCC1 (stereo not drawn) [Sibutramine] | – | side-effects ([1]; reported): cardiovascular side-effects
Cc1c(C(=O)NN2CCCCC2)nn(-c2ccc(Cl)cc2Cl)c1-c1ccc(Cl)cc1 [Rimonabant] | – | side-effects ([1]; reported): side-effect of central nervous system disorder
CCCCCCCCCCC[C@@H](C[C@@H]1OC(=O)[C@H]1CCCCCC)OC(=O)[C@H](CC(C)C)NC=O [Orlistat] | – | weight loss ([1]; when taken for one year): about 4 kg
Y[Aib]QGTFTSDYSKYLDCKRAKEFVQWLMNT [glucagon derivative of SEQ ID NO: 14] | 18.1 | –
Y[Aib]QGTFTSDYSKYLDSRRACDFRLWLMNT [glucagon derivative of SEQ ID NO: 18] | < 0.1 | –
W[Aib]QGTFTSDYSKCLDERRAKDFVQWLMNT (lactam 16-20) [glucagon derivative of SEQ ID NO: 30] | 0.3 | –
HSQGTFTSDYSKYLDCERAQDFVQWLMNT [glucagon derivative of SEQ ID NO: 3] | 6.1 | –
Y[Aib]QGTFTSDYSKYLDEKRAKEFVQWLMNTC (lactam 16-20) [glucagon derivative of SEQ ID NO: 12] | 56.3 | –
SQGTFTSDYSKYLDECRAKEFVQWLMNT (lactam 15-19) [glucagon derivative of SEQ ID NO: 32] | 0.7 | –
Y[Aib]QGTFTSDYSKYLCEKRAQDFVVWLMNT [glucagon derivative of SEQ ID NO: 15] | 1.1 | –
Y[Aib]QGTFTSDCSKYLDSRRAQDFVQWLMNT [glucagon derivative of SEQ ID NO: 43] | 1.6 | –
YXQGTFTSDYSKYLDSRRAQDFVQWLMNTC (X at position 2 = aminoisobutyric acid (Aib)) [glucagon derivative of SEQ ID NO: 44] | 75.4 | –
W[Aib]QGTFVSDYSKYLDECRAKDFVQWLMNT (lactam 16-20) [glucagon derivative of SEQ ID NO: 28] | < 0.1 | –
Y[Aib]QGTFTSDYSKYLDEKRCKEFVQWLMNT (lactam 16-20) [glucagon derivative of SEQ ID NO: 22] | 148 | –
HSQGTFTSDYSKYLDCDRAQDFVQWLMNT [glucagon derivative of SEQ ID NO: 2] | 0.6 | –
Y[Aib]QGTFTSDYSKYLDSCDAQDFVVWLINT [glucagon derivative of SEQ ID NO: 9] | < 0.1 | –
Y[Aib]QGTFCSDYSKYLDERRAKEFVQWLMNT (lactam 16-20) [glucagon derivative of SEQ ID NO: 38] | 167 | –
HSQGTFTSDYSKYLDSCDAQDFVQWLMNT [glucagon derivative of SEQ ID NO: 4] | < 0.1 | –
HSQGTFTSDYSKYLDSCEADDFVQWLMNT [glucagon derivative of SEQ ID NO: 6] | < 0.1 | –
Y[Aib]QGTFTSDYSKCLDEKRAKEFVQWLMNT (lactam 16-20) [glucagon derivative of SEQ ID NO: 24] | 58 | –
Y[Aib]QGTFCSDYSKYLDERRAKDFVQWLMNT (lactam 16-20) [glucagon derivative of SEQ ID NO: 41] | 45.2 | –
Y[Aib]QGTFTSDYSKYCDEKRAKEFVQWLMNT (lactam 16-20) [glucagon derivative of SEQ ID NO: 23] | 76.8 | –

Molecule | in vitro activity (%, relative to SEQ ID NO: 1); cAMP assay, from EC50 [2] [%] | further results
Y[Aib]QGTFTSDYSKYLCEKRAKEFVQWLMNT (lactam 16-20) [glucagon derivative of SEQ ID NO: 19] | 12.1 | –
Y[Aib]QGTFTSDYSKYLDCRRAQVFVQWLMRT [glucagon derivative of SEQ ID NO: 16] | 4.2 | –
Y[Aib]QGTFVSDYSKYLDERRAKDFVQWLMNTC (lactam 16-20) [glucagon derivative of SEQ ID NO: 40] | 40.8 | –
Y[Aib]QGTFVSDCSKYLDERRAKDFVQWLMNT (lactam 16-20) [glucagon derivative of SEQ ID NO: 39] | 3.7 | –
Y[Aib]QGTFTSDYSKYLDEKRAKCFVQWLMNT (lactam 16-20) [glucagon derivative of SEQ ID NO: 25] | 46.9 | –
Y[Aib]QGTFTSDYSKYLDCVRAQDFVQWLMRT [glucagon derivative of SEQ ID NO: 17] | 23.2 | –
Y[Aib]QGTFTSDCSKYLDERRAKEFVQWLMNT (lactam 16-20) [glucagon derivative of SEQ ID NO: 36] | 9.9 | –
Y[Aib]QGTFTSDYSKYLDSCDADDFVVWLINT [glucagon derivative of SEQ ID NO: 10] | < 0.1 | –
Y[Aib]QGTFCSDYSKYLDSRRAQDFVQWLMNT [glucagon derivative of SEQ ID NO: 42] | 37.9 | –
Y[Aib]QGTFTSDYSKYLDEKCAKEFVQWLMNT [glucagon derivative of SEQ ID NO: 11] | 4.6 | –
HSQGTFTSDYSKYLDSCEAQDFVQWLMNT [glucagon derivative of SEQ ID NO: 5] | 0.3 | –
YXQGTFTSDYSKYLDSRRAQDFVQWLMNT (X at position 2 = aminoisobutyric acid (Aib)) [glucagon derivative of SEQ ID NO: 33] | 108 | –
Y[Aib]QGTFTSDYSKYLDSCDAQDFVQWLINT [glucagon derivative of SEQ ID NO: 8] | < 0.1 | –
Y[Aib]QGTFVSDYSKYLDECRAKDFVQWLMNT (lactam 16-20) [glucagon derivative of SEQ ID NO: 27] | 93.6 | –
Y[Aib]QGTFTSDYSKYLDECRAKEFVQWLMNT (lactam 16-20) [glucagon derivative of SEQ ID NO: 20] | 300 | –
W[Aib]QGTFTSDYSKYCDERRAKEFVQWLMNT (lactam 16-20) [glucagon derivative of SEQ ID NO: 34] | 0.2 | –
YSQGTFTSDYSKYLDSCEADDFVQWLMNT [glucagon derivative of SEQ ID NO: 7] | < 0.1 | –
Y[Aib]QGTFTSDYSKYLDCKRAKEFVQWLMNT (lactam 17-21) [glucagon derivative of SEQ ID NO: 31] | 6.3 | –
Y[Aib]QGTFTSDYSKCLDERRAKDFVQWLMNT (lactam 16-20) [glucagon derivative of SEQ ID NO: 29] | 61.3 | –
Y[Aib]QGTFTSDYSKYCDERRAKEFVQWLMNT (lactam 16-20) [glucagon derivative of SEQ ID NO: 35] | 17.7 | –
Y[Aib]QGTFTSDYSKYLDEKCAKEFVQWLMNT (lactam 16-20) [glucagon derivative of SEQ ID NO: 21] | 57.8 | –
W[Aib]QGTFTSDYSKYLDECRAKDFVQWLMNT (lactam 16-20) [glucagon derivative of SEQ ID NO: 26] | 1 | –
